Test results as given in patent US6635751B1, “Isolated nucleic acids encoding activated and suppressive forms of ATF6” (HSP Research Institute, Inc., priority 1998, dated 2003).

Legend:
HeLa cells = experiment: Immunoblotting time course of p50ATF6 and GRP78 in treated HeLa cells; assay type: cell-based, human; settings: 7 μM A23187 or 300 μM thapsigargin
Experimental: HeLa cells were treated with 2 μg/ml TM, 7 μM A23187 or 300 μM thapsigargin (in the figure, simply referred to as “Tg”) for the indicated period. Alternatively, HeLa cells which were treated separately from the above treated cells were heat-shocked at 43° C. for 1 hour and then recovered at 37° C. for the indicated period. Whole cell extracts were prepared and analyzed by immunoblotting using an anti-B03N antiserum or an antiserum specific to either GRP78 or HSP70.
HeLa cells cultured in a 60-mm dish so as to have 60% confluency were incubated in the presence of 2 μg/ml tunicamycin (TM) for the indicated period. Cells were washed with PBS, scraped with a rubber policeman, and suspended in 100 μl Laemmli's SDS sample buffer. After boiling the suspension for 5 minutes, aliquots corresponding to 1×10^5 cells were subjected to SDS-PAGE (10% gel) and analyzed by immunoblotting using an anti-ATF6 antibody, or an anti-KDEL antibody recognizing GRP78. The positions of p90ATF6 and p50ATF6 are indicated by open and closed arrows, respectively. The asterisks denote non-specific bands in which a sugar chain is not added to p90ATF6. The positions of molecular weight markers (manufactured by Bio-Rad, prestained SDS-PAGE preparations) are also shown.
By lysing 1×10^6 HeLa cells in 60 μl of 1×sample buffer (62.5 mM Tris-HCl (pH 6.8), 2% SDS, 350 mM dithiothreitol and 0.01% bromophenol blue), a whole cell extract was prepared. […] Using an ECL Western blotting detection kit (manufactured by Amersham Pharmacia Biotech), each antigen was detected.
In order to determine whether or not the appearance of p50ATF6 is associated with the intracellular UPR activity, stress-induced p50ATF6 appearance and GRP78 expression were monitored with the passage of time by immunoblotting.
In order to determine whether or not p90ATF6 is directly converted to p50ATF6 by endoplasmic reticulum stress, quantitative changes in p90ATF6, p50ATF6 and the target protein GRP78 in TM-treated HeLa cells were evaluated with the passage of time by immunoblotting using the purified ATF6 antibody.

human GRP78 promoter [1] = experiment: Overexpression of CREB-RP mutants with GRP78 promoter luciferase reporter in HeLa cells, ERSE-mediated transcription; assay type: cell-based; settings: for ERSE-dependent transcriptional induction by the TM treatment: 2 μg/ml tunicamycin for 16 hours
Excerpt: (§1) In a 96-well plate, the HeLa cells were transiently transformed with a reporter plasmid pGL-G78(−132) for expressing firefly luciferase gene under the control of a human GRP78 promoter together with pcDNA3.1 vector which has no inserts or with ATF6(1-373) expression plasmid or with CREB-RP(1-389) expression plasmid. Relative activity is indicated by the mean±standard deviation (bars), based on four independent experiments (each triplicate determinations).
as §1, with “transformed using” for “transformed with”, “with CREB-RP(308-386)” for “with ATF6(1-373) expression plasmid or with CREB-RP(1-389)”, “plasmid. Transfected cells were treated with (closed bars) or without 2 μg/ml tunicamycin (open bars) for 16 hours before luciferase activities were determined.” for “plasmid.”
In the figure, closed bars and open bars indicate the same as those in FIG. 31.
The CREB-RP(1-389) expression plasmid and a reporter plasmid resulting from ligation of the luciferase gene to downstream of the GRP78 promoter or mutant GRP78 promoter were introduced into the HeLa cells to evaluate the effect of CREB-RP(1-389) overexpression on ERSE-mediated transcriptional activation.
In the same manner as in Example 16, the effect of CREB-RP(308-386) overexpression on ERSE-mediated transcriptional activation was evaluated.
In addition, in the same manner as in Example 16, the effect of overexpression of CREB-RP(81-389) or CREB-RP(151-389) on ERSE-mediated transcriptional activation was evaluated. Here, each of CREB-RP(81-389) and CREB-RP(151-389) lacks transcription-activating domain.

human GRP78 promoter [2] = experiment: Overexpression of pCGN-ATF6 deletion mutants with reporter pGL3-G78(-132) in HeLa cells, ERSE-mediated transcription; assay type: cell-based
Experimental: HeLa cells in a 24-well plate were transiently transfected with a reporter plasmid pGL-G78(−132) capable of expressing firefly luciferase gene under the control of human GRP78 promoter, together with pCGN vector alone (Vec) or each of ATF6 expression plasmids. Transfected cells were treated with (closed bars) or without (open bars) 2 μg/ml tunicamycin (TM) for 16 hours prior to measuring luciferase activity. The relative activities are indicated as the mean±standard deviations (bars) from four independent experiments (triplicate determinations).
Using HeLa cells co-transfected with the reporter plasmid pGL3-G78(−132) [see Example 1 (FIG. 6, line 2)] resulting from ligation of the firefly luciferase gene to downstream of the human GRP78 promoter ([−132 to +7], numbered on the basis of the translation initiation point taken as +1) and the expression plasmid for the ATF6 C-terminal deletion mutant of Example 10, the effects of each of the overexpressed C-terminal deletion mutants of ATF6 on ERSE-mediated transcriptional activation were evaluated.
Next, in the same manner as in Example 13, the effect of the overexpression of each ATF6 transcription-activating domain deletion mutant on ERSE-mediated transcriptional activation was evaluated by co-transfection with the reporter plasmid pGL3-G78(−132).

CNc1ccc2oc(C[C@H]3O[C@@]4(CC[C@H]3C)O[C@H]([C@H](C)C(=O)c3ccc[nH]3)[C@H](C)C[C@H]4C)nc2c1C(=O)O [A23187]
appearance of p50ATF6 relative to GRP78 induction (HeLa cells): p50ATF6 appeared in advance of GRP78 induction

C/C=C(/C)C(=O)O[C@H]1C(C)=C2[C@H]([C@@H]1OC(=O)CCCCCCC)[C@@](C)(OC(C)=O)C[C@H](OC(=O)CCC)[C@@]1(O)[C@H]2OC(=O)[C@@]1(C)O [thapsigargin]
appearance of p50ATF6 relative to GRP78 induction (HeLa cells): p50ATF6 appeared in advance of GRP78 induction

CREB-RP(308-386): CREB-RP amino acids 308th to 386th with N-terminal Met; only basic region and leucine zipper
ERSE-dependent transcriptional induction by the TM treatment (human GRP78 promoter [1]): strongly suppressed

B1: ATF6(151-330): ATF6 amino acids 151st to 330th, transcription-activating domain deletion mutant (protein, UniProt P18850 151-330, looked up, fragment)
chain: DKPVTGPRNKTENGLTPKKKIQVNSKPSIQPKPLLLPAAPKTQTNSSVPAKTIIIQTVPTLMPLAKQQPIISLQPAPTKGQTVLLSQPTVVQLQAPGVLPSAQPVLAVAGGVTQLPNHVVNVVPAPSANSPVNGKLSVTKPVLQSTMRNVGSDIAVLRRQQRMIKNRESACQSRKKKKEY
action on endogenous p50ATF6 in the nucleus (human GRP78 promoter [2]): act dominant-negatively

B2: CREB-RP(81-389): CREB-RP deletion mutant lacking transcription-activating domain (protein, UniProt Q99941 81-389, looked up, fragment)
chain: IFPDLQVKSEPSSPCSSSSLSSESSRLSTEPSSEALGVGEVLHVKTESLAPPLCLLGDDPTSSFETVQINVIPTSDDSSDVQTKIEPVSPCSSVNSEASLLSADSSSQAFIGEEVLEVKTESLSPSGCLLWDVPAPSLGAVQISMGPSLDGSSGKALPTRKPPLQPKPVVLTTVPMPSRAVPPSTTVLLQSLVQPPPVSPVVLIQGAIRVQPEGPAPSLPRPERKSIVPAPMPGNSCPPEVDAKLLKRQQRMIKNRESACQSRRKKKEYLQGLEARLQAVLADNQQLRRENAALRRRLEALLAENSELK
ERSE-dependent transcriptional induction by the TM treatment (human GRP78 promoter [1]): strongly suppressed

B3: CREB-RP(151-389): CREB-RP deletion mutant lacking transcription-activating domain (protein, UniProt Q99941 151-389, looked up, fragment)
chain: VIPTSDDSSDVQTKIEPVSPCSSVNSEASLLSADSSSQAFIGEEVLEVKTESLSPSGCLLWDVPAPSLGAVQISMGPSLDGSSGKALPTRKPPLQPKPVVLTTVPMPSRAVPPSTTVLLQSLVQPPPVSPVVLIQGAIRVQPEGPAPSLPRPERKSIVPAPMPGNSCPPEVDAKLLKRQQRMIKNRESACQSRRKKKEYLQGLEARLQAVLADNQQLRRENAALRRRLEALLAENSELK
ERSE-dependent transcriptional induction by the TM treatment (human GRP78 promoter [1]): strongly suppressed

B4: CREB-RP(1-389): CREB-RP amino acids 1st to 389th, corresponding to p60CREB-RP, activated form (protein)
chain: AELMLLSEIADPTRFFTDNLLSPEDWDSTLYSGLDEVAEEQTQLFRCPEQDVPFDGSSLDVGMDVSPSEPPWELLPIFPDLQVKSEPSSPCSSSSLSSESSRLSTEPSSEALGVGEVLHVKTESLAPPLCLLGDDPTSSFETVQINVIPTSDDSSDVQTKIEPVSPCSSVNSEASLLSADSSSQAFIGEEVLEVKTESLSPSGCLLWDVPAPSLGAVQISMGPSLDGSSGKALPTRKPPLQPKPVVLTTVPMPSRAVPPSTTVLLQSLVQPPPVSPVVLIQGAIRVQPEGPAPSLPRPERKSIVPAPMPGNSCPPEVDAKLLKRQQRMIKNRESACQSRRKKKEYLQGLEARLQAVLADNQQLRRENAALRRRLEALLAENSELKLGSGNRKVVCIMVFLLFIAFNFGPVSISEPPSAPISPRMNKGEPQPRRHLLGFSEQEPVQGVEPLQGSSQGPKEPQPSPTDQPSFSNLTAFPGGAKELLLRDLDQLFLSSDCRHFNRTESLRLADELSGWVQRHQRGRRKIPQRAQERQKSQPRKKSPPVKAVPIQPPGPPERDSVGQLQLYRHPDRSQPAFLDAIDRREDTFYVVSFRRGHLLLPAISHNKTSRPKMSLVMPAMAPNETLSGRGAPGDYEEMMQIECEVMDTRVIHIKTSTVPPSLRKQPSPTPGNATGGPLPVSAASQAHQASHQPLYLNHP
ERSE-mediated transcription from GRP78 promoter on overexpression (human GRP78 promoter [1]; without ER stress, not observed with mutant ERSE): constitutively activated the transcription
